Results published in US20090298765A1 (Takeda / Millennium, published 2009).
Where two headings read alike, the source gives them in different places. Non-standard residues stand in square brackets, D forms with d. No end group written: not given here. Phe(3-Cl) = N[C@@H](Cc1cccc(Cl)c1)C(=O)O; Phe(4-Cl) = N[C@@H](Cc1ccc(Cl)cc1)C(=O)O; Phe(4-NH2) = Nc1ccc(C[C@H](N)C(=O)O)cc1; Phe(2-Cl) = N[C@@H](Cc1ccccc1Cl)C(=O)O; Arg(Me) = CNC(=N)NCCC[C@H](N)C(=O)O; Arg(n-Pr) = n-propylated arginine; Orn = NCCC[C@H](N)C(=O)O; azaGly = NNC(=O)O

Assays:
[1] = molecular target: T1, human OT7T175 (metastin receptor) (human, UniProt Q969F8 1-398); assay: cell-based or functional assay
T1 sequence (Q969F8 whole entry L364H): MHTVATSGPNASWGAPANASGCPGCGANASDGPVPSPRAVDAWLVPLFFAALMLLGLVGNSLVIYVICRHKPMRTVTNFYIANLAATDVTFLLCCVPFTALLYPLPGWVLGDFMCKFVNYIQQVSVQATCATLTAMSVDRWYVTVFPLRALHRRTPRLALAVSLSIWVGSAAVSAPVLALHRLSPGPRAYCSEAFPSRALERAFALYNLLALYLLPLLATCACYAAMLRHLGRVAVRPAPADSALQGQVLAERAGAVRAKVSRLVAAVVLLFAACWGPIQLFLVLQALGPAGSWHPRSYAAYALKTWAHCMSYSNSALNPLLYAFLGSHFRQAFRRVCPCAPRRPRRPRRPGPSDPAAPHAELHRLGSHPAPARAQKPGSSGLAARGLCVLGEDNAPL

[2] = molecular target: T1, human OT7T175 (metastin receptor); assay: competition with Cy-5 metastin (40-54) on hOT7T175-CHO cells, FMAT
[3] = molecular target: T1, human OT7T175 (metastin receptor); assay: cell-based or functional assay; remark: listed apart in the source
[4] = molecular target: T1, human OT7T175 (metastin receptor); assay: cell-based or functional assay; remark: listed apart in the source

B1: [D-Tyr1,Ser4,Arg(Me)9]MS10 (peptide)
peptide: [dY]NWSSFGL[Arg(Me)]F-NH2
modifications: N-terminus assumed
SMILES: CNC(=N)NCCC[C@H](NC(=O)[C@H](CC(C)C)NC(=O)CNC(=O)[C@H](Cc1ccccc1)NC(=O)[C@H](CO)NC(=O)[C@H](CO)NC(=O)[C@H](Cc1c[nH]c2ccccc12)NC(=O)[C@H](CC(N)=O)NC(=O)[C@H](N)Cc1ccc(O)cc1)C(=O)N[C@@H](Cc1ccccc1)C(N)=O
- Ca ion level-increasing activity (FLIPR) [1]: 0.5 x Metastin (1-54)

B2: des(1)-[D-Asn2,Arg(Me)9]MS10 (peptide)
peptide: [dN]WNSFGL[Arg(Me)]F-NH2
modifications: N-terminus assumed
SMILES: CNC(=N)NCCC[C@H](NC(=O)[C@H](CC(C)C)NC(=O)CNC(=O)[C@H](Cc1ccccc1)NC(=O)[C@H](CO)NC(=O)[C@H](CC(N)=O)NC(=O)[C@H](Cc1c[nH]c2ccccc12)NC(=O)[C@H](N)CC(N)=O)C(=O)N[C@@H](Cc1ccccc1)C(N)=O
notes: also called Compound No. 216
- IC50 [2]: 700 nM
- Ca ion level-increasing activity (FLIPR) [1]: 1 x Metastin (1-54)

B3: des(1)-[D-Tyr2,Phe3,AzaGly7,Arg(Me)9]MS10 (peptide)
peptide: [dY]FNSF[azaGly]L[Arg(Me)]F-NH2
modifications: N-terminus assumed
SMILES: CNC(=N)NCCC[C@H](NC(=O)[C@H](CC(C)C)NC(=O)NNC(=O)[C@H](Cc1ccccc1)NC(=O)[C@H](CO)NC(=O)[C@H](CC(N)=O)NC(=O)[C@H](Cc1ccccc1)NC(=O)[C@H](N)Cc1ccc(O)cc1)C(=O)N[C@@H](Cc1ccccc1)C(N)=O
notes: also called Compound No. 254
- IC50 [2]: 11 nM
- Ca ion level-increasing activity (FLIPR) [1]: 1 x Metastin (1-54)

B4: des(1)-[D-Asn2,D-Trp3,Arg(Me)9]MS10 (peptide)
peptide: [dN][dW]NSFGL[Arg(Me)]F-NH2
modifications: N-terminus assumed
SMILES: CNC(=N)NCCC[C@H](NC(=O)[C@H](CC(C)C)NC(=O)CNC(=O)[C@H](Cc1ccccc1)NC(=O)[C@H](CO)NC(=O)[C@H](CC(N)=O)NC(=O)[C@@H](Cc1c[nH]c2ccccc12)NC(=O)[C@H](N)CC(N)=O)C(=O)N[C@@H](Cc1ccccc1)C(N)=O
notes: also called Compound No. 225
- IC50 [2]: 410 nM
- Ca ion level-increasing activity (FLIPR) [1]: 1 x Metastin (1-54)

B5: des(1)-[D-Tyr2,Ser3,Arg(Me)9]MS10 (peptide)
peptide: [dY]SNSFGL[Arg(Me)]F-NH2
modifications: N-terminus assumed
SMILES: CNC(=N)NCCC[C@H](NC(=O)[C@H](CC(C)C)NC(=O)CNC(=O)[C@H](Cc1ccccc1)NC(=O)[C@H](CO)NC(=O)[C@H](CC(N)=O)NC(=O)[C@H](CO)NC(=O)[C@H](N)Cc1ccc(O)cc1)C(=O)N[C@@H](Cc1ccccc1)C(N)=O
notes: also called Compound No. 226
- IC50 [2]: 100 nM
- Ca ion level-increasing activity (FLIPR) [1]: 1 x Metastin (1-54)

B6: des(1)-[D-Tyr2,Ile3,Arg(Me)9]MS10 (peptide)
peptide: [dY]INSFGL[Arg(Me)]F-NH2
modifications: N-terminus assumed
SMILES: CC[C@H](C)[C@H](NC(=O)[C@H](N)Cc1ccc(O)cc1)C(=O)N[C@@H](CC(N)=O)C(=O)N[C@@H](CO)C(=O)N[C@@H](Cc1ccccc1)C(=O)NCC(=O)N[C@@H](CC(C)C)C(=O)N[C@@H](CCCNC(=N)NC)C(=O)N[C@@H](Cc1ccccc1)C(N)=O
notes: also called Compound No. 228
- IC50 [2]: 40 nM
- Ca ion level-increasing activity (FLIPR) [1]: 5 x Metastin (1-54)

B7: des(1)-[D-Tyr2,Thr3,Arg(Me)9]MS10 (peptide)
peptide: [dY]TNSFGL[Arg(Me)]F-NH2
modifications: N-terminus assumed
SMILES: CNC(=N)NCCC[C@H](NC(=O)[C@H](CC(C)C)NC(=O)CNC(=O)[C@H](Cc1ccccc1)NC(=O)[C@H](CO)NC(=O)[C@H](CC(N)=O)NC(=O)[C@@H](NC(=O)[C@H](N)Cc1ccc(O)cc1)[C@@H](C)O)C(=O)N[C@@H](Cc1ccccc1)C(N)=O
notes: also called Compound No. 227
- IC50 [2]: 48 nM
- Ca ion level-increasing activity (FLIPR) [1]: 1 x Metastin (1-54)

Binder: [dY][dN]WNSF[azaGly]L[Arg(Me)]F-NH2 (also called Compound No. 237) [[D-Tyr1,D-Asn2,AzaGly7,Arg(Me)9]MS10]
- IC50 [2]: 27 nM
- Ca ion level-increasing activity (FLIPR) [1]: 3 x Metastin (1-54)

B8: [D-Tyr1,Ala3,AzaGly7,Arg(Me)9]MS10 (peptide)
peptide: [dY]NANSF[azaGly]L[Arg(Me)]F-NH2
modifications: N-terminus assumed
SMILES: CNC(=N)NCCC[C@H](NC(=O)[C@H](CC(C)C)NC(=O)NNC(=O)[C@H](Cc1ccccc1)NC(=O)[C@H](CO)NC(=O)[C@H](CC(N)=O)NC(=O)[C@H](C)NC(=O)[C@H](CC(N)=O)NC(=O)[C@H](N)Cc1ccc(O)cc1)C(=O)N[C@@H](Cc1ccccc1)C(N)=O
notes: also called Compound No. 235
- IC50 [2]: 100 nM
- Ca ion level-increasing activity (FLIPR) [1]: 1 x Metastin (1-54)

B9: [D-Tyr1,Phe(4NH2)3,AzaGly7,Arg(Me)9]MS10 (peptide)
peptide: [dY]N[Phe(4-NH2)]NSF[azaGly]L[Arg(Me)]F-NH2
modifications: N-terminus assumed
SMILES: CNC(=N)NCCC[C@H](NC(=O)[C@H](CC(C)C)NC(=O)NNC(=O)[C@H](Cc1ccccc1)NC(=O)[C@H](CO)NC(=O)[C@H](CC(N)=O)NC(=O)[C@H](Cc1ccc(N)cc1)NC(=O)[C@H](CC(N)=O)NC(=O)[C@H](N)Cc1ccc(O)cc1)C(=O)N[C@@H](Cc1ccccc1)C(N)=O
notes: also called Compound No. 250
- IC50 [2]: 3.7 nM
- Ca ion level-increasing activity (FLIPR) [1]: 1 x Metastin (1-54)

Binder: [dY]NFNSF[azaGly]L[Arg(Me)]F-NH2 (also called Compound No. 244) [[D-Tyr1,Phe3,AzaGly7,Arg(Me)9]MS10]
- IC50 [2]: 77 nM
- Ca ion level-increasing activity (FLIPR) [1]: 1 x Metastin (1-54)

B10: [D-Tyr1,Phe(2Cl)3,AzaGly7,Arg(Me)9]MS10 (peptide)
peptide: [dY]N[Phe(2-Cl)]NSF[azaGly]L[Arg(Me)]F-NH2
modifications: N-terminus assumed
SMILES: CNC(=N)NCCC[C@H](NC(=O)[C@H](CC(C)C)NC(=O)NNC(=O)[C@H](Cc1ccccc1)NC(=O)[C@H](CO)NC(=O)[C@H](CC(N)=O)NC(=O)[C@H](Cc1ccccc1Cl)NC(=O)[C@H](CC(N)=O)NC(=O)[C@H](N)Cc1ccc(O)cc1)C(=O)N[C@@H](Cc1ccccc1)C(N)=O
notes: also called Compound No. 247
- IC50 [2]: 45 nM
- Ca ion level-increasing activity (FLIPR) [1]: 1 x Metastin (1-54)

B11: [D-Tyr1,Ala7,Arg(Me)9]MS10 (peptide)
peptide: [dY]NWNSFAL[Arg(Me)]F-NH2
modifications: N-terminus assumed
SMILES: CNC(=N)NCCC[C@H](NC(=O)[C@H](CC(C)C)NC(=O)[C@H](C)NC(=O)[C@H](Cc1ccccc1)NC(=O)[C@H](CO)NC(=O)[C@H](CC(N)=O)NC(=O)[C@H](Cc1c[nH]c2ccccc12)NC(=O)[C@H](CC(N)=O)NC(=O)[C@H](N)Cc1ccc(O)cc1)C(=O)N[C@@H](Cc1ccccc1)C(N)=O
notes: also called Compound No. 204
- IC50 [2]: 680 nM
- Ca ion level-increasing activity (FLIPR) [1]: 5 x Metastin (1-54)

B12: [D-Tyr1,Phe(4Cl)3,AzaGly7,Arg(Me)9]MS10 (peptide)
peptide: [dY]N[Phe(4-Cl)]NSF[azaGly]L[Arg(Me)]F-NH2
modifications: N-terminus assumed
SMILES: CNC(=N)NCCC[C@H](NC(=O)[C@H](CC(C)C)NC(=O)NNC(=O)[C@H](Cc1ccccc1)NC(=O)[C@H](CO)NC(=O)[C@H](CC(N)=O)NC(=O)[C@H](Cc1ccc(Cl)cc1)NC(=O)[C@H](CC(N)=O)NC(=O)[C@H](N)Cc1ccc(O)cc1)C(=O)N[C@@H](Cc1ccccc1)C(N)=O
notes: also called Compound No. 249
- IC50 [2]: 150 nM
- Ca ion level-increasing activity (FLIPR) [1]: 1 x Metastin (1-54)

Binder: [dY]N[Phe(3-Cl)]NSF[azaGly]L[Arg(Me)]F-NH2 (also called Compound No. 248) [[D-Tyr1,Phe(3Cl)3,AzaGly7,Arg(Me)9]MS10]
- IC50 [2]: 58 nM
- Ca ion level-increasing activity (FLIPR) [1]: 2 x Metastin (1-54)

Binder: [dY]QWNSFGL[Arg(Me)]F-NH2 (also called Compound No. 214) [[D-Tyr1,Gln2,Arg(Me)9]MS10]
- IC50 [2]: 390 nM
- Ca ion level-increasing activity (FLIPR) [1]: 10 x Metastin (1-54)

B13: [D-Tyr1,Ile3,AzaGly7,Arg(Me)9]MS10 (peptide)
peptide: [dY]NINSF[azaGly]L[Arg(Me)]F-NH2
modifications: N-terminus assumed
SMILES: CC[C@H](C)[C@H](NC(=O)[C@H](CC(N)=O)NC(=O)[C@H](N)Cc1ccc(O)cc1)C(=O)N[C@@H](CC(N)=O)C(=O)N[C@@H](CO)C(=O)N[C@@H](Cc1ccccc1)C(=O)NNC(=O)N[C@@H](CC(C)C)C(=O)N[C@@H](CCCNC(=N)NC)C(=O)N[C@@H](Cc1ccccc1)C(N)=O
notes: also called Compound No. 233
- IC50 [2]: 23 nM
- Ca ion level-increasing activity (FLIPR) [1]: 1 x Metastin (1-54)

Binder: [dY]NWNSFGL[Arg(n-Pr)]F-NH2 [[D-Tyr1,Arg(n-Pr)9]MS10]
- Ca ion level-increasing activity (FLIPR) [1]: 0.5 x Metastin (1-54)

B14: [D-Tyr1,Gln4,Arg(Me)9]MS10 (peptide)
peptide: [dY]NWQSFGL[Arg(Me)]F-NH2
modifications: N-terminus assumed
SMILES: CNC(=N)NCCC[C@H](NC(=O)[C@H](CC(C)C)NC(=O)CNC(=O)[C@H](Cc1ccccc1)NC(=O)[C@H](CO)NC(=O)[C@H](CCC(N)=O)NC(=O)[C@H](Cc1c[nH]c2ccccc12)NC(=O)[C@H](CC(N)=O)NC(=O)[C@H](N)Cc1ccc(O)cc1)C(=O)N[C@@H](Cc1ccccc1)C(N)=O
- Ca ion level-increasing activity (FLIPR) [1]: 0.5 x Metastin (1-54)

B15: [Orn9]MS10 (peptide)
peptide: YNWNSFGL[Orn]F-NH2
modifications: N-terminus assumed
SMILES: CC(C)C[C@H](NC(=O)CNC(=O)[C@H](Cc1ccccc1)NC(=O)[C@H](CO)NC(=O)[C@H](CC(N)=O)NC(=O)[C@H](Cc1c[nH]c2ccccc12)NC(=O)[C@H](CC(N)=O)NC(=O)[C@@H](N)Cc1ccc(O)cc1)C(=O)N[C@@H](CCCN)C(=O)N[C@@H](Cc1ccccc1)C(N)=O
notes: also called Compound No. 314
- IC50 [2]: 470 nM
- Ca ion level-increasing activity (FLIPR, 40 s) [3]: 4.4 EC50/MS10 EC50
- Ca ion level-increasing activity (FLIPR) [4]: 1 x Metastin (1-54)
